Results from IntAct's records for PubMed 30190310.

B1: Kelch-like protein 12 (Homo sapiens), Q53G59 (parent)
chain: MGGIMAPKDIMTNTHAKSILNSMNSLRKSNTLCDVTLRVEQKDFPAHRIVLAACSDYFCAMFTSELSEKGKPYVDIQGLTASTMEILLDFVYTETVHVTVENVQELLPAACLLQLKGVKQACCEFLESQLDPSNCLGIRDFAETHNCVDLMQAAEVFSQKHFPEVVQHEEFILLSQGEVEKLIKCDEIQVDSEEPVFEAVINWVKHAKKEREESLPNLLQYVRMPLLTPRYITDVIDAEPFIRCSLQCRDLVDEAKKFHLRPELRSQMQGPRTRARLGANEVLLVVGGFGSQQSPIDVVEKYDPKTQEWSFLPSITRKRRYVASVSLHDRIYVIGGYDGRSRLSSVECLDYTADEDGVWYSVAPMNVRRGLAGATTLGDMIYVSGGFDGSRRHTSMERYDPNIDQWSMLGDMQTAREGAGLVVASGVIYCLGGYDGLNILNSVEKYDPHTGHWTNVTPMATKRSGAGVALLNDHIYVVGGFDGTAHLSSVEAYNIRTDSWTTVTSMTTPRCYVGATVLRGRLYAIAGYDGNSLLSSIECYDPIIDSWEVVTSMGTQRCDAGVCVLREK
B2: Kelch repeat and BTB domain-containing protein 8 (Homo sapiens), Q8NFY9 (parent)
chain: MAASADLSKSSPTPNGIPSSDPASDAMDPFHACSILKQLKTMYDEGQLTDIVVEVDHGKTFSCHRNVLAAISPYFRSMFTSGLTESTQKEVRIVGVEAESMDLVLNYAYTSRVILTEANVQALFTAASIFQIPSIQDQCAKYMISHLDPQNSIGVFIFADHYGHQELGDRSKEYIRKKFLCVTKEQEFLQLTKDQLISILDSDDLNVDREEHVYESIIRWFEHEQNEREVHLPEIFAKCIRFPLMEDTFIEKIPPQFAQAIAKSCVEKGPSNTNGCTQRLGMTASEMIICFDAAHKHSGKKQTVPCLDIVTGRVFKLCKPPNDLREVGILVSPDNDIYIAGGYRPSSSEVSIDHKAENDFWMYDHSTNRWLSKPSLLRARIGCKLVYCCGKMYAIGGRVYEGDGRNSLKSVECYDSRENCWTTVCAMPVAMEFHNAVEYKEKIYVLQGEFFLFYEPQKDYWGFLTPMTVPRIQGLAAVYKDSIYYIAGTCGNHQRMFTVEAYDIELNKWTRKKDFPCDQSINPYLKLVLFQNKLHLFVRATQVTVEEHVFRTSRKNSLYQYDDIADQWMKVYETPDRLWDLGRHFECAVAKLYPQCLQKVL

Variants of: B1
Details: with fxl17_human FBXL17, Q9UF56
Target sequence in this assay (Q9UF56 whole entry): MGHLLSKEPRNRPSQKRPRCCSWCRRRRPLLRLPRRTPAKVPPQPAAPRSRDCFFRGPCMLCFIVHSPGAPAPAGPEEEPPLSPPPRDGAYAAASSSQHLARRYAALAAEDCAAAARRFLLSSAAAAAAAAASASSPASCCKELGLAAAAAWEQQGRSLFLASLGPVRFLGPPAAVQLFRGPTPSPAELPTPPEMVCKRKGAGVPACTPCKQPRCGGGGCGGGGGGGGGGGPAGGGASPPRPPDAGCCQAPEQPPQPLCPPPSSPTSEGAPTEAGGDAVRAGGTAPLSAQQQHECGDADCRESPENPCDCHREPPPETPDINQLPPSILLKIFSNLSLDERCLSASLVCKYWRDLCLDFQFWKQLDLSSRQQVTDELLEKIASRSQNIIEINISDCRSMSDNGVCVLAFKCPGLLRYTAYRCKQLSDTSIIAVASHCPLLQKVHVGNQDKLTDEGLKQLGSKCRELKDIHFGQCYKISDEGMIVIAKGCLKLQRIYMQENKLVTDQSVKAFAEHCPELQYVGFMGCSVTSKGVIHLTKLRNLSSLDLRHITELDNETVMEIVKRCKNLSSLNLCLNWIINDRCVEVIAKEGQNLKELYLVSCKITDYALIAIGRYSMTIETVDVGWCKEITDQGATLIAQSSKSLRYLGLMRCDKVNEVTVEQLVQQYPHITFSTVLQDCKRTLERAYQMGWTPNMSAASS

Variant	effect of a mutation on the interaction
R27D	with no effect
C33F	causing an interaction
C33F;A60K	with no effect
I49A	causing an interaction
I49D	causing an interaction
V50A;A60K	with no effect
S67A	with no effect
S67E	disrupting interaction strength

Variants of: B2
Details: with fxl17_human FBXL17, Q9UF56
Target sequence in this assay (Q9UF56 whole entry): as above

Variant	effect of a mutation on the interaction
L39D	disrupting interaction strength
K40D	increasing interaction strength
Y43A	increasing interaction strength
K40A	with no effect
Y43D	disrupting interaction strength
L39A	decreasing interaction strength
V67A	increasing interaction strength
V67D	disrupting interaction strength
